{"source": "paper PMC4686654", "about": "“A molecular ruler regulates cytoskeletal remodelling by the Rho kinases” (Nature Communications, 2015)", "key": {"[1]": {"target": "human ROCK2 1-408 (kinase domain alone) (human)", "experiment": "not stated; recombinant catalytic domain in solution", "conditions": "both partners purified"}, "[2]": {"target": "the molecule itself", "experiment": "static light scattering; recombinant ROCK2 in solution; mass 327 kDa, polydispersity index 1.000"}, "[3]": {"target": "the molecule itself", "experiment": "SEC; Superdex 75 in 20 mM Tris pH 7.5, 100 mM NaCl, 1 mM TCEP, 4 mM MgCl2"}, "[4]": {"target": "T1, RBD fragment of human ROCK2 (977-1,047) (human, UniProt O75116 977-1047)", "T1 chain": "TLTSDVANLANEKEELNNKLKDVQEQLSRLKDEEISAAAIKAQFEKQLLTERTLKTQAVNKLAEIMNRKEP", "experiment": "SEC; Superdex 75 in 20 mM Tris pH 7.5, 100 mM NaCl, 1 mM TCEP, 4 mM MgCl2", "conditions": "both partners purified"}}, "data": [{"binder": "human ROCK2 1-408 (kinase domain alone) (domain or fragment, paper residues 1-408 on the 1,379-residue form = O75116 10-417; activation loop not phosphorylated; constitutive dimer; tag cleaved / paper residues 1-408 on the 1,379-residue form = O75116 10-417 …) MPGAPETAPGDGAGASRQRKLEALIRDPRSPINVESLLDGLNSLVLDLDFPALRKNKNIDNFLNRYEKIVKKIRGLQMKAEDYDVVKVIGRGAFGEVQLVRHKASQKVYAMKLLSKFEMIKRSDSAFFWEERDIMAFANSPWVVQLFYAFQDDRYLYMVMEYMPGGDLVNLMSNYDVPEKWAKFYTAEVVLALDAIHSMGLIHRDVKPDNMLLDKHGHLKLADFGTCMKMDETGMVHCDTAVGTPDYISPEVLKSQGGDGFYGRECDWWSVGVFLYEMLVGDTPFYADSLVGTYSKIMDHKNSLCFPEDAEISKHAKNLICAFLTDREVRLGRNGVEEIRQHPFFKNDQWHWDNIRETAAPVVPELSSDIDSSNFDDIEDDKGDVETFPIPKAFVGNQLPFIGFTYYR", "values": [{"measurement": "stoichiometry N", "setting": "[1]", "value": 2}]}, {"binder": "human ROCK2 (Rho-associated coiled-coil kinase 2), full-length recombinant (enzyme, mono- and diphosphorylated species, two adjacent serines (1,352-1,353)) MPGAPETAPGDGAGASRQRKLEALIRDPRSPINVESLLDGLNSLVLDLDFPALRKNKNIDNFLNRYEKIVKKIRGLQMKAEDYDVVKVIGRGAFGEVQLVRHKASQKVYAMKLLSKFEMIKRSDSAFFWEERDIMAFANSPWVVQLFYAFQDDRYLYMVMEYMPGGDLVNLMSNYDVPEKWAKFYTAEVVLALDAIHSMGLIHRDVKPDNMLLDKHGHLKLADFGTCMKMDETGMVHCDTAVGTPDYISPEVLKSQGGDGFYGRECDWWSVGVFLYEMLVGDTPFYADSLVGTYSKIMDHKNSLCFPEDAEISKHAKNLICAFLTDREVRLGRNGVEEIRQHPFFKNDQWHWDNIRETAAPVVPELSSDIDSSNFDDIEDDKGDVETFPIPKAFVGNQLPFIGFTYYRENLLLSDSPSCRETDSIQSRKNEESQEIQKKLYTLEEHLSNEMQAKEELEQKCKSVNTRLEKTAKELEEEITLRKSVESALRQLEREKALLQHKNAEYQRKADHEADKKRNLENDVNSLKDQLEDLKKRNQNSQISTEKVNQLQRQLDETNALLRTESDTAARLRKTQAESSKQIQQLESNNRDLQDKNCLLETAKLKLEKEFINLQSALESERRDRTHGSEIINDLQGRICGLEEDLKNGKILLAKVELEKRQLQERFTDLEKEKSNMEIDMTYQLKVIQQSLEQEEAEHKATKARLADKNKIYESIEEAKSEAMKEMEKKLLEERTLKQKVENLLLEAEKRCSLLDCDLKQSQQKINELLKQKDVLNEDVRNLTLKIEQETQKRCLTQNDLKMQTQQVNTLKMSEKQLKQENNHLMEMKMNLEKQNAELRKERQDADGQMKELQDQLEAEQYFSTLYKTQVRELKEECEEKTKLGKELQQKKQELQDERDSLAAQLEITLTKADSEQLARSIAEEQYSDLEKEKIMKELEIKEMMARHKQELTEKDATIASLEETNRTLTSDVANLANEKEELNNKLKDVQEQLSRLKDEEISAAAIKAQFEKQLLTERTLKTQAVNKLAEIMNRKEPVKRGNDTDVRRKEKENRKLHMELKSEREKLTQQMIKYQKELNEMQAQIAEESQIRIELQMTLDSKDSDIEQLRSQLQALHIGLDSSSIGSGPGDAEADDGFPESRLEGWLSLPVRNNTKKFGWVKKYVIVSSKKILFYDSEQDKEQSNPYMVLDIDKLFHVRPVTQTDVYRADAKEIPRIFQILYANEGESKKEQEFPVEPVGEKSNYICHKGHEFIPTLYHFPTNCEACMKPLWHMFKPPPALECRRCHIKCHKDHMDKKEEIIAPCKVYYDISTAKNLLLLANSTEEQQKWVSRLVKKIPKKPPAPDPFARSSPRTSMKIQQNQSIRRPSRQLAPNKPS", "values": [{"measurement": "stoichiometry N", "setting": "[2]", "value": 2}]}, {"binder": "RBD fragment of human ROCK1 (947-1,015) (domain or fragment, UniProt Q13464 947-1015, looked up, also called ROCK1 RBD; source: E. coli BL21 (DE3), purified (NiNTA, Superdex 75)) MLTKDIEILRRENEELTEKMKKAEEEYKLEKEEEISNLKAAFEKNINTERTLKTQAVNKLAEIMNRKDF", "values": [{"measurement": "stoichiometry N", "setting": "[3]", "value": 2}]}, {"binder": "RBD fragment of human ROCK2 (977-1,047) (domain or fragment, none; His6 tag omitted. The limits are read in O75116 numbering: the fragment is said to match the crystal-structure RBD, and ROCK1 947-1015 (RhoBD 949-1015) aligns with O75116 979-1047 (RhoBD), so …) TLTSDVANLANEKEELNNKLKDVQEQLSRLKDEEISAAAIKAQFEKQLLTERTLKTQAVNKLAEIMNRKEP", "values": [{"measurement": "stoichiometry N", "setting": "[4]", "value": 2}]}]}
